Data on 5 molecules can be found in patent US20120231006A1 (Amgen, published 2012).

One assay has as its target T1, mouse Orai1 (mouse, UniProt Q8BWG9 1-304).
T1 construct: co-expressed with mouse STIM1; also called mOrai1
Put plainly: FACS, 293EBNA transfectants with STIM1, thapsigargin. As to the method:
(§1) FIG. 13A-B illustrates the results of FACS analysis showing binding to human Orai1 expressed on the surface of HEK-293-EBNA cells that were treated with 2 μM Thapsigargin. HEK-293-EBNA cells were transiently transfected with human Orai1 and human STIM1, mouse Orai1 and mouse STIM1, rat Orai1 and rat STIM1 and control empty vector. Transfected cells were stained first with recombinant monoclonal antibodies then counter-stained with a secondary phycoerythrin-labeled Gt anti-Hu IgG F(ab′)₂ or Gt anti-Mu IgG F(ab′)₂ antibody fragment, as appropriate, and visualized using FACS.
(§2) FACS binding analysis. Transfected 293EBNA cells transiently expressed hOrai1, human Orai2, or human Orai3 (results of binding comparison in FIG. 11A-B), or hOrai1(S218G) (results of binding comparison in FIG. 12A-B); or hOrai1 and hSTIM1; mOrai1 and mouse STIM1; or rat Orai1 and rat STIM1 (results of binding comparison in FIG. 13). The transfected cells were harvested at 48 hours post-transfection. Cells transfected with pcDNA3.1 were used as negative controls. Cells were washed once with ice-cold 1×PBS, resuspended in ice-cold FACS buffer (1×D-PBS+2% goat serum), and 2×10⁵ cells in […] were stained per antibody combination. All antibody incubation steps were performed on ice for 1 hour. […] Next, the unlabelled antibody was detected using goat F(ab′)₂ anti-mouse or anti-human IgG-phycoerythrin (IgG-PE), followed by a wash with 200 μL of ice-cold FACS buffer before flow cytometry analysis. Unstained cells and cells stained with detecting antibodies were used as negative controls. The values of relative level of fluorescence were calculated using FCS Express (De Novo Software) and mean values were calculated using log-transformed data (geometric mean). Purified mAbs were assessed by FACS assay for their ability to specifically bind human Orai1, Orai2 and Orai3 proteins expressed on HEK-293 cells.
(A flow cytometer gives signals particle by particle.)

Another assay addresses T2, rat Orai1 (rat, UniProt Q5M848 1-304).
T2 construct: co-expressed with rat STIM1; also called rOrai1
Described as above. As to the method: as §1, §2

Assay [1] deals with T3, mOrai1-hOrai1 ECL2 chimeric protein (human/mouse chimera, UniProt Q8BWG9 1-304 (mouse entry)).
T3 construct: mouse Orai1 with human ECL2; also called Ch
T3 sequence (Q8BWG9 other isoform, or with tags, fused parts or gaps mutant): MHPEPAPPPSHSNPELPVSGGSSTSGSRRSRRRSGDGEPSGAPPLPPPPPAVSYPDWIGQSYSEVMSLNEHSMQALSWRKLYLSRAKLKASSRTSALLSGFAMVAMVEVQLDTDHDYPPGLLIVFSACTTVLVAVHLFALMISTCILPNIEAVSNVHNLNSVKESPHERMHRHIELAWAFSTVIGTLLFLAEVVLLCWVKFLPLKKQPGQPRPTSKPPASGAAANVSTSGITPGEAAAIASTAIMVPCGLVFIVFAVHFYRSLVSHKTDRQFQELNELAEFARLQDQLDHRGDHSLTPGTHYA
The assay is described as follows: FACS, 293EBNA, RFI-POC grade. Further details: concentration or dose not given beside the values. The text has this: (§3) FIG. 16A-D illustrates the results of FACS analysis showing binding to the indicated mOrai1-hOrai1 ECL2 chimeric mutants expressed on the surface of HEK-293-EBNA cells. Transfected cells were stained first with recombinant monoclonal antibodies then counter-stained with a secondary phycoerythrin-labeled goat (“Gt”) anti-human (“Hu”) IgG F(ab′)₂ antibody fragment and visualized using FACS. In FIG. 16B and FIG. 16D, The values of Relative Fluorescence Intensity as Percent of Control (RFI-POC) are calculated from the relative fluorescence intensity geometric mean (Geo Mean). The geometric mean is an average calculated by multiplying a series of numbers and taking the nth root where n is the number of numbers in the series. It is a statistical average of a set of transformed numbers often used to represent a central tendency in a highly variable data set that minimizes the effects of extreme values.
(§4) Table 11A and Table 11B feature a schematic representation of the POC data from FIG. 16B and FIG. 16D, respectively, where the binding results are recorded as (+++) denoting binding POC from 40% to 100%, (++) for POC of 5% to less than 40%, (+) for POC from 1% to less than 5% and (−) as lack of binding with POC less than 1%.

Assay [2] concerns the target T4, mOrai1-hOrai1 ECL2 (VIV) protein (human/mouse chimera, UniProt Q8BWG9 1-304 (mouse entry)).
T4 construct: also called Ch
Put plainly: FACS, 293EBNA, RFI-POC grade. Further details: concentration or dose not given beside the values.
Text: as §3, §4

The target in assay [3] is T5, mOrai1-hOrai1 ECL2 (HSD) protein (human/mouse chimera, UniProt Q8BWG9 1-304 (mouse entry)).
T5 construct: also called Ch
T5 sequence (Q8BWG9 other isoform, or with tags, fused parts or gaps): as the sequence (Q8BWG9 other isoform, or with tags, fused parts or gaps mutant) above, with V226H, T228D counted along it
Put plainly: FACS, 293EBNA, RFI-POC grade. Further details: concentration or dose not given beside the values.
Text: as §3, §4

A further assay concerns the target human Orai3 (human, UniProt Q9BRQ5 1-295). Put plainly: FACS, 293EBNA transfectants. As to the method: (§5) Purified monoclonal antibodies from hybridoma supernantants of the subclones derived from initial hits were assessed for binding to human Orai1, Orai2 and Orai3 expressed on HEK-293-EBNA cells along with vector transfected control parental cells. Cells stained with or without primary mAbs were counter-stained with a secondary phycoerythrin-labeled goat (“Gt”) anti-human (“Hu”) IgG F(ab′)₂ antibody fragment and visualized using FACS.
as §2

In a further assay the target is T6, human Orai2 (human, UniProt Q96SN7 1-254).
T6 construct: also called hOrai2
T6 sequence (Q96SN7 whole entry): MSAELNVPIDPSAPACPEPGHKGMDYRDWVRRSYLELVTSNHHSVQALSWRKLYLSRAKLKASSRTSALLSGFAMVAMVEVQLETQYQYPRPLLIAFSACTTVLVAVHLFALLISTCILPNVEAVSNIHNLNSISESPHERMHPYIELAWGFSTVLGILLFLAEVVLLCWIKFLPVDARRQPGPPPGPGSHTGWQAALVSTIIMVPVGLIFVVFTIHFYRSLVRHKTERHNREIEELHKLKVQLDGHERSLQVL
The assay is described as follows: FACS, 293EBNA transfectants. The method, then:
as §5, §2

The target of assay [4] is T7, hOrai1-mOrai1 ECL2 chimeric protein (human/mouse chimera, UniProt Q96D31 1-301).
T7 construct: human Orai1 with mouse ECL2; also called Ch
T7 sequence (Q96D31 other isoform, or with tags, fused parts or gaps mutant): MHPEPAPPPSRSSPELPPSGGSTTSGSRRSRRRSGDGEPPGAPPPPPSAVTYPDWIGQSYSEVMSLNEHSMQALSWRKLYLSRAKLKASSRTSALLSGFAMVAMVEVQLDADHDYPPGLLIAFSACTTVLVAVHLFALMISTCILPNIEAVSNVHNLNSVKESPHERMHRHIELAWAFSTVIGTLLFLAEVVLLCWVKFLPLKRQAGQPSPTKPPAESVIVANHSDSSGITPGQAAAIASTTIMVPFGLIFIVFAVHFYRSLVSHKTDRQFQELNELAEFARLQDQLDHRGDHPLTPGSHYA
The assay is described as follows: FACS, 293EBNA transfectants. From the text: FIG. 15A-B illustrates the results of FACS analysis showing binding to human Orai1 extracellular loop 2-mouse Orai1 mutant expressed on the surface of HEK-293-EBNA cells. HEK-293-EBNA cells were transiently transfected with mouse Orai1 mutant where human Orai1 extracellular loop 2 replaced the mouse Orai1 extracellular loop 2 and human Orai1 mutant where mouse Orai1 extracellular loop 2 replaced human extracellular loop 2. Transfected cells were stained first with recombinant monoclonal antibodies then counter-stained with a secondary phycoerythrin-labeled goat (“Gt”) anti-human (“Hu”) IgG F(ab′)₂ antibody fragment and visualized using FACS.
FACS binding analysis. Transfected 293EBNA cells transiently expressed hOrai1-mOrai1 ECL2 or mOrai1-hOrai1 ECL2 chimera. The transfected cells were harvested at 48 hours post-transfection. Cells transfected with pcDNA3.1 were used as negative controls. Cells were washed once with ice-cold 1×PBS, resuspended in ice-cold FACS buffer (1×D-PBS+2% goat serum), and 2×10⁵ cells in 100 μL were stained per antibody combination. All antibody incubation steps were performed on ice for 1 hour. […] Next, the unlabelled antibody was detected using goat F(ab′)₂ anti-mouse or anti-human IgG-phycoerythrin (IgG-PE), followed by a wash with 200 μL of ice-cold FACS buffer before flow cytometry analysis. Unstained cells and cells stained with detecting antibodies were used as negative controls. The values of relative level of fluorescence were calculated using FCS Express (De Novo Software) and mean values were calculated using log-transformed data (geometric mean). The results of the FACS analysis are shown in FIG. 15A-B, which supports the conclusion that the hOrai1 ECL2 domain is the region of hOrai1 where antibodies of the present invention bind.

The next assay addresses human Orai1 (human, UniProt Q96D31 1-301). The assay is described as follows: cell-based or functional assay.

Sequence of human Orai1 (Q96D31 whole entry): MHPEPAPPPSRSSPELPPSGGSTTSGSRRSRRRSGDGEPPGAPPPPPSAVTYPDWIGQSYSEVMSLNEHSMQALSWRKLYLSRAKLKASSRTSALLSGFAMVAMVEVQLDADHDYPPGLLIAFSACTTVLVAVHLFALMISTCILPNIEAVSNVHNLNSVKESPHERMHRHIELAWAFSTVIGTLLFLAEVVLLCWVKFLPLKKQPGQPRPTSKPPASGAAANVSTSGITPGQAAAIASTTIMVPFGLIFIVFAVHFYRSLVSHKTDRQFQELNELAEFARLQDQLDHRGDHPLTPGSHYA
T2 sequence (Q5M848 whole entry): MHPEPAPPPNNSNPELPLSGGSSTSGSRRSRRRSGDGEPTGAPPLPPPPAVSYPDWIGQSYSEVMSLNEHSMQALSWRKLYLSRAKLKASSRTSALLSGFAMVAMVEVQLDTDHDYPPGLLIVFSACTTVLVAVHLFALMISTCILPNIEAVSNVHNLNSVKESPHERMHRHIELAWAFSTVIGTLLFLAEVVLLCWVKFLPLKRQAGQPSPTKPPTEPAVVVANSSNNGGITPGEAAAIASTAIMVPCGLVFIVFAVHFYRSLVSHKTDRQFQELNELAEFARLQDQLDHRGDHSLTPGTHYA
T1 sequence (Q8BWG9 whole entry): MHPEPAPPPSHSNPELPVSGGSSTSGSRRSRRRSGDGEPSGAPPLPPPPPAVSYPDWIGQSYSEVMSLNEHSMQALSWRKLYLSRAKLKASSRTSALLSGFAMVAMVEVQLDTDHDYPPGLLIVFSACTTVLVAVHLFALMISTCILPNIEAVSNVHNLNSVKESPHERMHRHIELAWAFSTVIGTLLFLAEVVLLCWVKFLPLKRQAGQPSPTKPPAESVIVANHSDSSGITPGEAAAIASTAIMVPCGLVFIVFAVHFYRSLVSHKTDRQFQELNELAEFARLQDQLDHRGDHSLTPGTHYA
T4 sequence (Q8BWG9 other isoform, or with tags, fused parts or gaps): as the sequence (Q8BWG9 other isoform, or with tags, fused parts or gaps mutant) above, with G221V, A222I, A223V counted along it

B1: mAb 2D2.1 (antibody, human IgG2, lambda, V domains shown)
VH: QVQLQQWGAGLLKPSETLSLTCAVYGGSFSGYYWSWIRQPPGKGLEWIGEIDHSGRINYNPALKSRLTISVDTSKNQFSLKLSSVTAADTAVYYCARAGSGGYEDWFDPWGQGTLVTVSS
VL: QSVLTQPPSVSGAPGQRVTISCTGSSSNIGAGYNVHWYQQFPRTDPKLLIYVYNIRPSGVPDRFSGSRSGTSASLAITGLQTEDEADYYCQSYDSSLSGVVFGGGTKLTVLG
notes: fully human IgG2 lambda, Campaign 1; also called mAb 2D.1
Take B1: the binding result (with mouse Orai1; with rat Orai1; with human Orai3; in the assay with human Orai2; in [4]) was “no binding (tested: 1 µg)” in each case. Also, the “POC (percent of control, FACS Geo Mean relative to binding to Ch. 1)” value in assay [1], in assay [2] and in assay [3] was 40 to 100% throughout.

B2: mAb 2B7.1 (antibody, human IgG2, V domains shown)
VH: QVQLQQWGAGLLKPSETLSLTCAVYGGSFSGYYWSWIRQPPGKGLEWIGEIDHSGSTNYNPALKSRLTISVDTSKNQFSLKLSSVTAADTAVYYCARAGSGGYEDWFDPWGQGTLVTVSS
VL: QSVLTQPPSVSGAPGQRVTISCTGSSSNIGTGYNVHWYQQFPRTDPKLLIYVYNIRPSGVPDRFSGSRSGTSASLAITGLQTEDEADYYCQSYDSSLSGVVFGGGTKLTVLG
notes: fully human, Campaign 1
Regarding B2, the binding result (in the assay with mouse Orai1; with rat Orai1; with human Orai3; with human Orai2; in assay [4]) was “no binding (tested: 1 µg)” in each case.

B3: mAb 2C1.1 (antibody, human IgG2, lambda, V domains shown)
VH: QVQLQQWGAGLLKPSETLSLTCAVYGGSFSGYYWSWIRQPPGKGLEWIGEIDHSGSTNYNPALKSRLTISVDTSKNQFSLKLSSVTAADTAVYYCARAGSGGYEDWFDPWGQGTLVTVSS
VL: QSVLTQPPSVSGAPGQRVTISCTGSSSNIGAGYNVHWYQQFPRTDPKLLIYVYNIRPSGVPDRFSGSRSGTSASLAITGLQTEDEADYYCQSYDSSLSGVVFGGGTKLTVLG
notes: fully human IgG2 lambda, Campaign 1; tested hybridoma-purified and recombinant; also called anti-hOrai1 mAb 2C1.1
As for B3, the binding result (with mouse Orai1; with rat Orai1; with human Orai3; with human Orai2; in assay [4]) was “no binding (tested: 1 µg)” in each case.

B4: mAb 5F7.1 (antibody, human IgG2, lambda)
heavy: QVQLVQSGAEVKKPGASVKVPCKASGYTFTDYYINWVRQAPGQGLEWMGWINPNNGGTNYAQKFQGRVTMTRDTSISTAYMELRRLRSDDTAVYYCARERGGYEDWFDPWGQGTLVTVSSASTKGPSVFPLAPCSRSTSESTAALGCLVKDYFPEPVTVSWNSGALTSGVHTFPAVLQSSGLYSLSSVVTVPSSNFGTQTYTCNVDHKPSNTKVDKTVERKCCVECPPCPAPPVAGPSVFLFPPKPKDTLMISRTPEVTCVVVDVSHEDPEVQFNWYVDGVEVHNAKTKPREEQFNSTFRVVSVLTVVHQDWLNGKEYKCKVSNKGLPAPIEKTISKTKGQPREPQVYTLPPSREEMTKNQVSLTCLVKGFYPSDIAVEWESNGQPENNYKTTPPMLDSDGSFFLYSKLTVDKSRWQQGNVFSCSVMHEALHNHYTQKSLSLSPGK
light: QSVLTQPPSVSGAPGQRVTISCTGSSSNIGAGFDVHWYQQLPVTAPKLLIYGNRNRPSGVPARFSGSKSGTSASLAITGLQAEDEAVYYCQSYDSSLTVFGGGTKLTVLGQPKANPTVTLFPPSSEELQANKATLVCLISDFYPGAVTVAWKADGSPVKAGVETTKPSKQSNNKYAASSYLSLTPEQWKSHRSYSCQVTHEGSTVEKTVAPTECS
notes: fully human IgG2 lambda, Campaign 2
As for B4, the binding result (with mouse Orai1; with rat Orai1; in the assay with human Orai3; with human Orai2; in assay [4]) was “no binding (tested: 1 µg)” each time. The “POC (percent of control, FACS Geo Mean relative to binding to Ch. 1)” value in [1], in assay [2] and in [3] was 40 to 100% in each case. In the assay with human Orai1, the “IC50 IFN-γ, whole blood Donor B” value was 11.8 nM. For the same molecule, in the assay with human Orai1, the “IC50 IL-2, whole blood Donor A” value came out at 4.05 nM. Also, in the assay with human Orai1, the “IC50 IL-2, whole blood Donor B” value is 3.49 nM.

B5: mAb 2B4.1 (antibody, human IgG2, lambda, V domains shown)
VH: QVQLVQSGAEVKKPGASVKVSCKASGYTFTDYYMHWVRQAPGQGLEWMGWINPNSGGTNYVQKFQDRVTMTRDTSITTAYMELTRLRSDDTAVYYCAREEGDYGMDVWGQGTTVTVSS
VL: QSVLTQPPSVSGAPGQRVTISCTGSNSNIGTGYDVHWYQKLPGTAPRLLIYSHFNRPSGVPDRFSGSTSGTSASLAITGLQAEDEADYYCQSYDSSLSGSVFGGGTKLTVLG
Regarding B5, the binding result (in the assay with mouse Orai1; in the assay with rat Orai1; with human Orai3; with human Orai2; in assay [4]) was “no binding (tested: 1 µg)” throughout.
